From the supplement of paper PMC9112550, “Optimization of the antimicrobial peptide Bac7 by deep mutational scanning” (BMC Biology, 2022)

System: Escherichia coli TOP10
Test: shrunken log2 fold change of peptide-encoding DNA abundance (4.5 h post-induction vs induction); higher = less antimicrobial activity (less host growth inhibition)
Conditions: time post-induction: 4.5 h; library: site-saturation at positions 5, 18, 19, 20
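Further: peptides expressed intracellularly from a pBAD plasmid library in pooled LB shake-flask culture, induced with 0.3% L-arabinose, DNA abundance read by NGS, three biological replicates, DESeq2 with apeglm shrinkage.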

Sequence	shrunken log2 fold change
RRIRARPPRLPRPRPRPWPDPRP	0.17
RRIRARPPRLPRPRPRPWRCPRP	0.0472
RRIRARPPRLPRPRPRPWSSPRP	-0.656
RRIRARPPRLPRPRPRPWVSPRP	-0.0266
RRIRARPPRLPRPRPRPWYFPRP	-0.332
RRIRARPPRLPRPRPRPWYHPRP	-0.0138
RRIRARPPRLPRPRPRPWYLPRP	-0.161
RRIRARPPRLPRPRPRPYCCPRP	-0.181
RRIRARPPRLPRPRPRPYCDPRP	-0.425
RRIRARPPRLPRPRPRPYDTPRP	-0.0699
RRIRARPPRLPRPRPRPYDVPRP	-0.0868
RRIRARPPRLPRPRPRPYFRPRP	-0.435
RRIRARPPRLPRPRPRPYGYPRP	-0.294
RRIRARPPRLPRPRPRPYIDPRP	-0.186
RRIRARPPRLPRPRPRPYIRPRP	-0.406
RRIRARPPRLPRPRPRPYIVPRP	-0.882
RRIRARPPRLPRPRPRPYKCPRP	-0.138
RRIRARPPRLPRPRPRPYNFPRP	-0.192
RRIRARPPRLPRPRPRPYNGPRP	-0.0341
RRIRARPPRLPRPRPRPYPEPRP	-0.181

Sequence	shrunken log2 fold change
RRIRARPPRLPRPRPRPYPGPRP	0.0384
RRIRARPPRLPRPRPRPYPKPRP	-0.149
RRIRARPPRLPRPRPRPYPQPRP	-0.166
RRIRARPPRLPRPRPRPYQAPRP	-0.0488
RRIRARPPRLPRPRPRPYQCPRP	-0.44
RRIRARPPRLPRPRPRPYQPPRP	0.589
RRIRARPPRLPRPRPRPYSMPRP	-0.484
RRIRARPPRLPRPRPRPYVIPRP	-0.434
RRIRARPPRLPRPRPRPYVKPRP	-0.539
RRIRARPPRLPRPRPRPYVMPRP	-0.211
RRIRARPPRLPRPRPRPYYPPRP	-0.349
RRIRCRPPRLPRPRPRPAACPRP	0.202
RRIRCRPPRLPRPRPRPACAPRP	0.433
RRIRCRPPRLPRPRPRPACKPRP	-0.312
RRIRCRPPRLPRPRPRPADNPRP	-0.219
RRIRCRPPRLPRPRPRPADPPRP	-0.195
RRIRCRPPRLPRPRPRPAEGPRP	0.14
RRIRCRPPRLPRPRPRPAGDPRP	0.176
RRIRCRPPRLPRPRPRPAGFPRP	0.1
RRIRCRPPRLPRPRPRPAHIPRP	-0.0847

Sequence	shrunken log2 fold change
RRIRCRPPRLPRPRPRPAHVPRP	0.019
RRIRCRPPRLPRPRPRPAIIPRP	-0.786
RRIRCRPPRLPRPRPRPAITPRP	-0.372
RRIRCRPPRLPRPRPRPAKVPRP	-0.243
RRIRCRPPRLPRPRPRPANGPRP	-0.0497
RRIRCRPPRLPRPRPRPAPAPRP	0.84
RRIRCRPPRLPRPRPRPAPSPRP	0.504
RRIRCRPPRLPRPRPRPAPVPRP	0.56
RRIRCRPPRLPRPRPRPAQAPRP	0.147
RRIRCRPPRLPRPRPRPAQMPRP	0.224
RRIRCRPPRLPRPRPRPARQPRP	0.0993
RRIRCRPPRLPRPRPRPASGPRP	0.148
RRIRCRPPRLPRPRPRPATIPRP	-0.55
RRIRCRPPRLPRPRPRPATRPRP	0.366
RRIRCRPPRLPRPRPRPATYPRP	-0.389
RRIRCRPPRLPRPRPRPAVHPRP	0.0826
RRIRCRPPRLPRPRPRPAVSPRP	-0.345
RRIRCRPPRLPRPRPRPAWKPRP	0.0545
RRIRCRPPRLPRPRPRPAWMPRP	-0.0623
RRIRCRPPRLPRPRPRPAWTPRP	-0.154
